From patent publication US20220153796A1

The binders below were run against HLA-B*44 (human) (assay: UV peptide exchange ELISA).

Row | Binder | peptide exchange yield [%]
1 | EEIEGKGSFTYF | 50 to 75
2 | HEFSSPSHL | 50 to 75
3 | ALNPYQYQY | 50 to 75
4 | DEVNFLVY | 10 to 20
5 | EEGRVYLF | 50 to 75
6 | AENLFRAF | 20 to 50
7 | TENRYCVQL | > 75
8 | AETLSTIQI | 50 to 75
9 | SEGSEPALLHSW | 50 to 75
10 | SEIEDSTKQVF | 50 to 75
11 | TEFTTVLY | 20 to 50
12 | KEADIHFLI | > 75
13 | RELQHEHSL | 50 to 75
14 | SDMVRFHLF | 20 to 50
15 | SENLFFASF | > 75
16 | AEVPTGVII | 50 to 75
17 | AEDEPAAAHL | 20 to 50
18 | AEEEIMKKI | 20 to 50
19 | GEIIMQNNW | > 75
20 | KELEATKQY | 20 to 50
21 | GEFPVRVQV | 20 to 50
22 | SEMNVNMKY | > 75
23 | SEIEQEIGSL | 50 to 75
24 | TEGIIMKDF | 20 to 50
25 | VEAPGPVHVYW | > 75
26 | EEVNYINTF | 50 to 75
27 | YEDLSQKY | 20 to 50
28 | MEVPVIKI | 20 to 50
29 | EDAQGHIW | 50 to 75

Continued, values first:

Row | peptide exchange yield [%] | Binder
30 | 50 to 75 | GECDVFKEIL
31 | 50 to 75 | GEVHPSEMI
32 | 50 to 75 | RELENCFQIQ
33 | 50 to 75 | EEIERFFKL
34 | 50 to 75 | AETPIQNVI
35 | 20 to 50 | ASSSGPMRWW
36 | > 75 | NEVLTYIKF
37 | 50 to 75 | TEREWADEW
38 | > 75 | IEFIHPQAF
39 | 50 to 75 | TEDPTILRI
40 | 20 to 50 | GEVSGLTKDF
41 | 50 to 75 | AEIQGNINHV
42 | 50 to 75 | MEMQKSPVF
43 | 50 to 75 | AELDKLTSV
44 | 50 to 75 | KEGDLGGKQW
45 | 50 to 75 | EEATGQFHVY
46 | 50 to 75 | QENSYQSRL
47 | > 75 | AEVGFVRFF
48 | 50 to 75 | AEIQPQTQV
49 | 50 to 75 | EENDQSTHKW
50 | 50 to 75 | SEPALLHSW
51 | > 75 | DELFSIALY
52 | 50 to 75 | SEKGVIQVY
53 | 50 to 75 | AEQDMRELTY
54 | 20 to 50 | GELALKKKI
